{
  "source": "paper PMC10293810",
  "molecular_target": "T1, TREX1 catalytic core (murine) (UniProt Q91XB0)",
  "T1 sequence": "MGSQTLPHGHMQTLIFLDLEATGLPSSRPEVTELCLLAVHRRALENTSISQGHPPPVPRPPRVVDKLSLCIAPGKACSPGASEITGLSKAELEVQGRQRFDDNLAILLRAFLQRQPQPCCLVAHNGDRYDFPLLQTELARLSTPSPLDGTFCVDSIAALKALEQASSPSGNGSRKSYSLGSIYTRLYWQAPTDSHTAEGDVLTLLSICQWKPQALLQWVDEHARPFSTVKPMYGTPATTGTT",
  "experiment": "fluorescence polarization",
  "conditions": "FP with 5 nM ligand at 25 C (some FPCD at 4 C); buffer for MS2-CP (BB6): 100 mM Tris pH 7.5, 10 mM MgCl2, 80 mM KCl, 0.1 mg/mL BSA; other buffers not in …",
  "data": [
    {"sequence": "GAAGTGCCCGTGACGCGCGCGACGCCAGCCGACGAAGGCGGGACCCAGAGCGCGCGCCGT (double strand) [ds-[F]d(N)60]", "values": [
      {"measurement": "Kd", "result": 30, "unit": "nM"}
    ]}
  ]
}
